Values of other authors in patent publication US11820970B2, “High throughput protein-protein interaction screening in yeast liquid culture” (University of Washington, priority 2016, dated 2023).

T1: Bfl1 (Homo sapiens, UniProt Q16548)
T1 sequence (Q16548 1-175): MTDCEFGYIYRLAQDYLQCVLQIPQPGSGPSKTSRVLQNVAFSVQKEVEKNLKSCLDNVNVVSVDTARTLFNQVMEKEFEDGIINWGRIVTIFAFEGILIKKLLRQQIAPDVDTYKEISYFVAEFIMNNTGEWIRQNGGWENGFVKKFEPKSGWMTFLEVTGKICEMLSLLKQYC

T2: BclW (Homo sapiens, UniProt Q92843)
T2 sequence (Q92843 1-193): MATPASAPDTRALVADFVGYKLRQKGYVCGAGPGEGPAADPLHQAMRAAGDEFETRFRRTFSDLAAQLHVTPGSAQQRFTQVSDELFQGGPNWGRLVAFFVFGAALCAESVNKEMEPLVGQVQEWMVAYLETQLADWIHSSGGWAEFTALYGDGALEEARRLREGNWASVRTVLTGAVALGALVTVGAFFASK

T3: BclB (Homo sapiens, UniProt Q9HD36)
T3 sequence (Q9HD36 1-204): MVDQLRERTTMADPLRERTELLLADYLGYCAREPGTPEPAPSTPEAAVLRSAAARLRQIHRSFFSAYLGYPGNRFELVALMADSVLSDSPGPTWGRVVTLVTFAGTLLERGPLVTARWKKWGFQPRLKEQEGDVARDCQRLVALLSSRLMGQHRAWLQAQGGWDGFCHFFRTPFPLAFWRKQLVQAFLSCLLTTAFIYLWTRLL

B1: B-CDP01: de novo (engineered) binding protein for Bcl2 family homologues, displayed as SAP (protein)
chain: ADPKKVLDKAKDQAENRVRELKQELERLYKEARKLDLTQEMRRKLEWRYIAAMLKAIGDILNAIAQAENEADKLKKAGLVNSQQLDELRRRLEELAKEAARKAHDYGREFQLKLEY
B2: X-CDP07: de novo (engineered) binding protein for Bcl2 family homologues, displayed as SAP (protein)
chain: ADPKKVLDKAKDRAENVVRKLKKELEELYKEARKLDLTQEMRDRIRLAAIAARIAAFGDIFHAIMEALEEARKLKKAGLVNSQQLDELKRRLEELDEEAAQRAEKLGKEFELKLEY

Experiments:
Mcl1 = Mcl1 (Homo sapiens, UniProt Q07820); conditions: binder vs Mcl1; known affinities; read-out: AFFINITY
Sequence of Mcl1 (Q07820 whole entry, species assumed): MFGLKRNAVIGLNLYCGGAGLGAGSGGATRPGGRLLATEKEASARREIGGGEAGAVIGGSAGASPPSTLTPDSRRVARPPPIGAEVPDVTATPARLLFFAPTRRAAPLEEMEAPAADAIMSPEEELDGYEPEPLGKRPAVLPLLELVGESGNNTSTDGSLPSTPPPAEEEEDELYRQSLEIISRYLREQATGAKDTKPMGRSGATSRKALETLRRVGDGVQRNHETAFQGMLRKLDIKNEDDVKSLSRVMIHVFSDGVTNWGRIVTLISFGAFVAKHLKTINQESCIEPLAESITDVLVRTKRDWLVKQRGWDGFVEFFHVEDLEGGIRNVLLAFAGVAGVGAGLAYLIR

Bfl1 = target: T1, Bfl1; conditions: binder vs Bfl1; known affinities; read-out: AFFINITY
BclXL = BclXL (Homo sapiens, UniProt Q07817); conditions: binder vs BclXL; known affinities; read-out: AFFINITY
Sequence of BclXL (Q07817 whole entry, species assumed): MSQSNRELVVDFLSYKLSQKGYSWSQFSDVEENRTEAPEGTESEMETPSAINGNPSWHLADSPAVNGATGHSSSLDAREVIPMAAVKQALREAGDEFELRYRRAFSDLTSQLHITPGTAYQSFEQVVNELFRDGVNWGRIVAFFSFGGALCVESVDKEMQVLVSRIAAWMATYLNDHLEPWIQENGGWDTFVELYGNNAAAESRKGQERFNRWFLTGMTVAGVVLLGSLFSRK

BclW = target: T2, BclW; conditions: binder vs BclW; known affinities; read-out: AFFINITY
Bcl2 = Bcl2 (Homo sapiens, UniProt P10415); conditions: binder vs Bcl2; known affinities; read-out: AFFINITY
Sequence of Bcl2 (P10415 whole entry, species assumed): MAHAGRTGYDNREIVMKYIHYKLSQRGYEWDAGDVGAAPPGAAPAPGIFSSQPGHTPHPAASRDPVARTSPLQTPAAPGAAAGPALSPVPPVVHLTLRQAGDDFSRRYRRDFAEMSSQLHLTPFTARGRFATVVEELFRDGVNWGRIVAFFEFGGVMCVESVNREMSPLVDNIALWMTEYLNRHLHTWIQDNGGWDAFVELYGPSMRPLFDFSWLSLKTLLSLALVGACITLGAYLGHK

BclB = target: T3, BclB; conditions: binder vs BclB; known affinities; read-out: AFFINITY

Molecule | Kd (Mcl1) [nM] | Kd (Bfl1) [nM] | Kd (BclXL) [nM] | Kd (BclW) [nM] | Kd (Bcl2) [nM] | Kd (BclB) [nM]
B1 | 0.46 | 518 | 20.2 | 2010 | 17.3 | 8.33
B2 | 17.4 | 7050 | 0.59 | 14.9 | 3.81 | 107
